Measurements from patent US20190315864A1 (SUZHOU ALPHAMAB, published 2019).
Numbering of substitutions follows the chain as printed.

B1: CTLA4 heavy chain single domain antibody No. 155 (VHH)
VHH: QVQLQESGGGPVQAGGSLRLSCAVSKYPYSGSCMGWFRQAPGKEREGVAAMFTGTGSTYYADSVKGRFTISQNVAKNTLDLQMNSLKPEDTAMYYCAVDLLPRSTRCLDYGLRTYNYWGQGTQVTVSS
notes: Camel VHH expressed in E. coli (PET32b), nickel-purified
B2: CTLA4 heavy chain single domain antibody No. C27 (VHH)
VHH: QVQLQESGGGSVQAGGSLRLSCAASGYIYSAYCMGWFRQAPGKERVGVAAISIGGGSTYYADSVKGRFTISQDNAKNTLYLQMNSLKPEDTAMYYCAADVIPTETCLGGSWSGPFGYWGQGTQVTVSS
notes: as for B1
B3: CTLA4 heavy chain single domain antibody No. C1 (VHH)
VHH: B2 VHH with R19G, V46E, S52Y, I53L, N74I, Y95S
notes: Camel VHH expressed in E. coli (PET32b), nickel-purified, detected by anti-His tag antibody
B4: CTLA4 heavy chain single domain antibody No. 145 (VHH)
VHH: QVQLQESGGGSVQAGGSLRLSCAASGYTYSSYSMGWFRQAAGKEREGVAAIDSDGSTSYADSVKGRFTISQDNAKNTLYLQMNSLEPEDTAMYYCAATAGWYAARHALSPLFFGYWGQGTQVTVSS
notes: as for B1

Molecular target: T1, CTLA4-Fc fusion protein (human, biotinylated where used as CTLA4-Fc-Biotin (Examples 5.1-5.3))
T1 construct: expressed in HEK293 cells; also called human CTLA4-Fc protein; CTLA4-Fc antigen protein
Assay: ELISA, CTLA4-Fc coated, 10 ng VHH/well
Method: (§1) Plates were coated with CTLA4-Fc fusion protein overnight at 4° C. and 10 ng of the heavy chain single-domain antibody obtained in Example 2.1 (the control was a single domain antibody not binding to the CTLA4-Fc protein) was added to each well and allowed to react for 1 hour at room temperature. After washing, primary antibody anti-His tag antibody (purchased from Beijing Kangwei Century Biotechnology Co., Ltd.) was added and reacted for 1 hour at room temperature. After washing, a secondary goat anti-mouse horseradish peroxidase-labeled antibody (Yiqiao Shenzhou, Cat: SSA007200) was added and reacted for 1 hour at room temperature. After washing, chromogenic agent was added and the absorbance was read at 405 nm.

Row | OD (against CTLA4) | Binder
1 | 1.72 OD405 | B1
2 | 1.31 OD405 | B2
3 | 1.2 OD405 | B3
4 | 1.49 OD405 | B4

Molecular target: T1, CTLA4-Fc fusion protein
Assay: ELISA, VHH coated 0.5 µg/well, dilution series of CTLA4-Fc, anti-human IgG-Fc HRP; antibody No. 145 (printed as No. 14)
Method: (§2) The plates were coated with the obtained CTLA4 heavy chain single-domain antibody at 0.5 μg/well overnight at 4° C. followed by addition of a gradient dilution series of CTLA4-Fc fusion protein and allowed to react for 1 hour at room temperature. After washing, goat anti-human IgG-Fc horseradish peroxidase labeled antibody (lakepharma) was added and allowed to react for 1 hour at room temperature. After washing, horseradish peroxidase c chromogenic solution was added and the absorbance was read at a wavelength of 405 nm.

Row | EC50 | Binder
5 | ~0.05 µg/mL | B4

Molecular target: T1, CTLA4-Fc fusion protein
Assay: ELISA OD ratio, value equals OD(CTLA4)/OD(blank)
Method: as §1

Row | ODa/ODb | Binder
6 | 61.6 | B1
7 | 46.8 | B2
8 | 42.9 | B3
9 | 53.1 | B4

Molecular target: T1, CTLA4-Fc fusion protein
Assay: ELISA, VHH coated 0.5 µg/well, dilution series of CTLA4-Fc, anti-human IgG-Fc HRP; antibody No. C1
Method: as §2

Row | EC50 | Binder
10 | ~0.123 µg/mL | B3

Molecular target: T1, CTLA4-Fc fusion protein
Assay: competitive ELISA: CD80-Fc-Biotin signal on coated CTLA4-Fc with 500 ng VHH/well; competitor CD80-Fc-Biotin
Method: (§3) SA-HRP (purchased from Sigma) was added and allowed to react for 1 hour at room temperature. After adding chromogenic solution, absorbance was read at 405 nm wavelength.

Row | OD | Binder
11 | 0.746 OD405 | B1
12 | 0.04 OD405 | B2
13 | 0.054 OD405 | B3
14 | 0.597 OD405 | B4

Molecular target: T1, CTLA4-Fc fusion protein
Assay: ELISA OD ratio, value equals OD(CTLA4)/OD(Fc)
Method: as §1
(§4) Plates were coated with Fc protein overnight at 4° C. and 10 ng of the heavy chain single domain antibody obtained in Example 2.1 was added to each well (control was a single domain antibody against other unrelated targets) and allowed to react for 1 hour at room temperature. After washing, an rabbit anti-human Fc antibody (purchased from Shanghai Pu Xin Biotechnology Co., Ltd.) was added and reacted for 1 hour at room temperature. After washing, goat anti-rabbit horseradish peroxidase labeled antibody (purchased from Shanghai Pu Xin Biotechnology Co., Ltd.) was added and reacted at room temperature for 1 hour. After washing, chromogenic agent was added and the absorbance was read at 405 nm.

Row | ODa/OD blank | Binder
15 | 33.8 | B1
16 | 26.7 | B2
17 | 22.7 | B3
18 | 22.9 | B4

Molecular target: T2, Mouse CTLA4-Fc protein (mouse, biotinylated (mCTLA4-Fc-Biotin))
T2 construct: also called mCTLA4-Fc-Biotin; mouse CTLA4-Fc fusion protein
Assay: ELISA, VHH coated 0.5 µg/well, mouse CTLA4-Fc (biotinylated), SA-HRP; blank 0.027
Method: (§5) Thereafter, SA-HRP (purchased from Sigma) was added, and the mixture was reacted at room temperature for 1.5 hours. After washing, chromogenic agent was added and the absorbance was read at 405 nm.

Row | OD (against mouse CTLA4) | Binder
19 | 0.032 OD405 | B1
20 | 0.021 OD405 | B2
21 | 0.042 OD405 | B3
22 | 0.026 OD405 | B4

Molecular target: T1, CTLA4-Fc fusion protein
Assay: ELISA, VHH coated 0.5 µg/well, dilution series of CTLA4-Fc, anti-human IgG-Fc HRP; antibody No. C27
Method: as §2

Row | EC50 | Binder
23 | ~0.093 µg/mL | B2

Molecular target: T3, Fc protein
T3 construct: Counter-screen for the Fc part of CTLA4-Fc
Assay: ELISA, Fc protein coated, 10 ng VHH/well
Method: as §4

Row | OD (against Fc) | Binder
24 | 0.051 OD405 | B1
25 | 0.049 OD405 | B2
26 | 0.053 OD405 | B3
27 | 0.065 OD405 | B4

Molecular target: T2, Mouse CTLA4-Fc protein
Assay: ELISA, VHH coated 0.5 µg/well, mCTLA4-Fc-Biotin, SA-HRP
Method: as §5

Row | binding result | Binder
28 | no binding | B1
29 | no binding | B2
30 | no binding | B3
31 | no binding | B4

Molecular target: T1, CTLA4-Fc fusion protein
Assay: ELISA, VHH coated 0.5 µg/well, dilution series of CTLA4-Fc, anti-human IgG-Fc HRP; antibody No. 155
Method: as §2

Row | EC50 | Binder
32 | ~0.013 µg/mL | B1

Molecular target: T1, CTLA4-Fc fusion protein
Assay: competitive ELISA, CTLA4-Fc coated, VHH series with 250 ng/mL CD80-Fc-Biotin
Method: as §3

Row | IC50 | Binder
33 | ~4.69 µg/mL | B1
34 | ~0.731 µg/mL | B2
35 | 0.852 µg/mL | B3
36 | ~1.95 µg/mL | B4
